Measured values published in patent publication US20020123614A1 (published 2002).
Where a chain is given by its changes, count along the chain named. Numbers in names are those of the source. Each block holds one binder with its values, some of them ahead of it.

Tests used:
[1] = molecular target: T1, recombinant ICAM-2 Fc chimera (UniProt P13598 25-223, limits assumed); assay: BIAcore, 1 mM MgCl2
T1 construct: amine-coupled to the BIAcore chip; not shown: Fc part, not described
T1 sequence (looked up): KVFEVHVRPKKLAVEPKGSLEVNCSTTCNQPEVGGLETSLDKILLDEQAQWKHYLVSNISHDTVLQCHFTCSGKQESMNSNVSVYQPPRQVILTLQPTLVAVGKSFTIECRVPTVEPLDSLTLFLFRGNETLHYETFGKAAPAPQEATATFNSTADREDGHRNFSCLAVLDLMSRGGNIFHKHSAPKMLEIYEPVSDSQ
Protocol: (§1) The recombinant proteins were purified from inclusion bodies by solubilization of inclusion bodies in 6M guanidine HCl and were refolded by dilution in the presence of 0.1 mM Cu²⁺/phenanthrolin to enhance formation of disulfide bonds. Protein was concentrated by ammonium sulfate precipitation, dialyzed, and purified over a monoQ ion-exchange column. […] The recombinant proteins were then purified by gel filtration and concentrated by Centriprep. For BIAcore™ analysis, recombinant ICAM-1, ICAM-2 and ICAM-3 Fc chimeras were immobilized on the BIAcore™ sensor chip by an amine-coupling method. Recombinant αL I-domains were flowed in, and BIAcore™ assays were performed with Tris-buffered saline supplemented with 1 mM MgCl₂ or 2 mM EDTA, at a flow rate of 10 μl/minute at 25° C.

[2] = molecular target: T2, recombinant ICAM-3 Fc chimera (UniProt P32942 30-485, limits assumed); assay: BIAcore, 1 mM MgCl2
T2 construct: amine-coupled to the BIAcore chip; not shown: Fc part, not described
T2 sequence (looked up): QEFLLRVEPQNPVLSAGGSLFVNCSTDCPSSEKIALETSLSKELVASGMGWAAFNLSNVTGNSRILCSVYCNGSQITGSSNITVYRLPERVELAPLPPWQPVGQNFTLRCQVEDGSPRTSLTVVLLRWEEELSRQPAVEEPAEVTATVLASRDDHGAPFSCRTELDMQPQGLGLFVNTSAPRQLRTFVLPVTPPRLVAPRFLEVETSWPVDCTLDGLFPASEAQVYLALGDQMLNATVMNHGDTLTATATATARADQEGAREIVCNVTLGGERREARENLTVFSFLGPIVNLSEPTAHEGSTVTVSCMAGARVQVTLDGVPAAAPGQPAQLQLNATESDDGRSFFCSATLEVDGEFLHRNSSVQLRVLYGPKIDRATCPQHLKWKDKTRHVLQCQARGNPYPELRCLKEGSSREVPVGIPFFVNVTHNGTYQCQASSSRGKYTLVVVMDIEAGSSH
Protocol: as §1

[3] = molecular target: T3, recombinant ICAM-1 Fc chimera (UniProt P05362 28-480, limits assumed); assay: BIAcore; Kon calculated by Koff/KD
T3 construct: amine-coupled to the BIAcore chip; not shown: Fc part, not described
Protocol: (§2) Recombinant soluble αL I-domains were expressed in E. coli, refolded and purified. Kinetics of binding of the I-domains to ICAM-1 was measured by BIAcore ™ instruments. Kinetics was analyzed BIAevaluation ™ software. KD was calculated by Scatchard plots using data at steady states. Koff was obtained by curve fining of the dissociation phase using 1:1 binding model. Kon was calculated by Koff/KD.

[4] = molecular target: T3, recombinant ICAM-1 Fc chimera; assay: BIAcore; dissociation phase, 1:1 model
Protocol: as §2

[5] = molecular target: T3, recombinant ICAM-1 Fc chimera; assay: BIAcore; Scatchard plots at steady state
Protocol: as §2

[6] = molecular target: ICAM-1 (BIAcore, another study; construct not stated) (UniProt P05362 28-480, limits assumed); assay: BIAcore, another study
[7] = molecular target: T4, murine ICAM-1 (murine, UniProt P13597 28-485, limits assumed); assay: BIAcore (not described further)
T4 construct: on EL-4 cells in the aggregation assay

[8] = molecular target: T3, recombinant ICAM-1 Fc chimera; assay: BIAcore, ICAM Fc chimera immobilized, 1:1 model
Protocol: as §1

[9] = molecular target: T1, recombinant ICAM-2 Fc chimera; assay: BIAcore, ICAM Fc chimera immobilized, 1:1 model
Protocol: as §1

[10] = molecular target: T2, recombinant ICAM-3 Fc chimera; assay: BIAcore, ICAM Fc chimera immobilized, 1:1 model
Protocol: as §1

T3 sequence (P05362 28-480 limits assumed, change not shown): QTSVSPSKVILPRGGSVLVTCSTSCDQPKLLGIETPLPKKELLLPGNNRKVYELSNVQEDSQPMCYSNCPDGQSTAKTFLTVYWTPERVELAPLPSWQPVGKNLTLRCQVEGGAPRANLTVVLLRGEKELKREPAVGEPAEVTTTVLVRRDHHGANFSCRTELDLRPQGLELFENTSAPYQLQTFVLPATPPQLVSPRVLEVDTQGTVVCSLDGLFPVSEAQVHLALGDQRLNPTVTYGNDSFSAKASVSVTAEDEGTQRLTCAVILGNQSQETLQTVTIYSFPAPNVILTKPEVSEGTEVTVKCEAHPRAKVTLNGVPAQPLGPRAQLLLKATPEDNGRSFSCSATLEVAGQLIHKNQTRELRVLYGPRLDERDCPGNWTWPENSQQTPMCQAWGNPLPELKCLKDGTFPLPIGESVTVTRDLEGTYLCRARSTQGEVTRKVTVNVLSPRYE
T4 sequence (P13597 28-485 limits assumed): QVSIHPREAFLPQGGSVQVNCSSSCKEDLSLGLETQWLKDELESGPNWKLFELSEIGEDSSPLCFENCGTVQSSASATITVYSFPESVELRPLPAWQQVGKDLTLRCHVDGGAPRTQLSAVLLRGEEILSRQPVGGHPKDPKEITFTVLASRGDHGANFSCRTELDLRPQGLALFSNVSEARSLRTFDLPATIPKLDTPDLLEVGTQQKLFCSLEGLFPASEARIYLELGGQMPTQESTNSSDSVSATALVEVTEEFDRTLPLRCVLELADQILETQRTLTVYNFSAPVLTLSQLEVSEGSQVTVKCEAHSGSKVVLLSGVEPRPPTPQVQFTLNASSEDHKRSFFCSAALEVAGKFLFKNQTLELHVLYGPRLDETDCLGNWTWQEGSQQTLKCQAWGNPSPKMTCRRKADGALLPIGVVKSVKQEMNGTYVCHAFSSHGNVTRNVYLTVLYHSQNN
ICAM-1 (BIAcore, another study; construct not stated), sequence (P05362 28-480 limits assumed): as the sequence (P05362 28-480 limits assumed, change not shown) above

B1: recombinant soluble wild-type αL I-domain (G128-Y307), E. coli (receptor)
chain: GNVDLVFLFDGSMSLQPDEFQKILDFMKDVMKKLSNTSYQFAAVQFSTSYKTEFDFSDYVKRKDPDALLKHVKHMLLLTNTFGAINYVATEVFREELGARPDATKVLIIITDGEATDSGNIDAAKDIIRYIIGIGKHFQTKESQETLHKFASKPASEFVKILDTFEKLKDLFTELQKKIY
notes: numbers as printed, probably mature αL numbering; also called soluble wild-type I domain; wild-type I-domain
binding result [1]: no binding | binding result [2]: no binding

B4: recombinant soluble αL I-domain L289C/K294C (locked closed) (receptor)
chain: B1 chain with L162C, K167C
kon [3]: 2110 M⁻¹ s⁻¹ | koff [4]: 2.84 s⁻¹ | Kd [5]: 1760 µM

B7: recombinant soluble αL I-domain L161C/T300C (locked open, intermediate affinity) (receptor)
chain: B1 chain with L34C, T173C
kon [3]: 135000 M⁻¹ s⁻¹ | koff [4]: 0.65 s⁻¹ | Kd [5]: 4.8 µM

Next, values leading:

kon [3]: 128000 M⁻¹ s⁻¹ | koff [4]: 0.0459 s⁻¹ | Kd [5]: 0.36 µM
B2: recombinant soluble αL I-domain E284C/E301C (locked open) (receptor)
chain: B1 chain with E157C, E174C

kon [3]: 136000 M⁻¹ s⁻¹ | koff [4]: 0.513 s⁻¹ | Kd [5]: 3.76 µM
B3: recombinant soluble αL I-domain L161C/F299C (locked open, intermediate affinity) (receptor)
chain: B1 chain with L34C, F172C

Kd [6]: 0.2 µM | binding result [7]: binds | kon [3]: 128000 M⁻¹ s⁻¹ | koff [4]: 0.023 s⁻¹ | Kd [5]: 0.18 µM | Kd [8]: 0.18 µM | koff [8]: 0.023 s⁻¹ | kon [8]: 128000 M⁻¹ s⁻¹ | Kd [9]: 0.513 µM | koff [9]: 0.0118 s⁻¹ | kon [9]: 23000 M⁻¹ s⁻¹ | Kd [10]: 3.94 µM | koff [10]: 0.0749 s⁻¹ | kon [10]: 19000 M⁻¹ s⁻¹
B5: recombinant soluble αL I-domain stabilized in the open conformation (K287C/K294C), G128-Y307, E. coli (receptor)
chain: B1 chain with K160C, K167C
modifications: introduced disulfide C287-C294
notes: numbers as printed, probably mature αL numbering; also called open I-domain; soluble open I-domain

kon [3]: 153000 M⁻¹ s⁻¹ | koff [4]: 0.67 s⁻¹ | Kd [5]: 4.39 µM
B6: recombinant soluble αL I-domain K160C/F299C (locked open, intermediate affinity) (receptor)
chain: B1 chain with K33C, F172C
